{
  "source": "patent US6096502",
  "about": "“Substrate for detecting UL9 helicase activity” (Lee; Sam S.-K.)",
  "binders": {"B1": {"name": "Substrate I (18-nt 3' tail on first strand, 5' tail on second strand) (mixed)", "DNA 1": "CGCGAAGCGTTCGCACTTCGTCCCGCCTTCCTGCGCCTTCCTGT", "DNA 2": "CATGCTCGCAGCGGGACGAAGTGCGAACGCTTCGCG"}},
  "target": "UL9 protein (origin-binding protein/helicase) (UniProt P10193 P10193:1-851)",
  "sequence (P10193 whole entry, one chain of several)": "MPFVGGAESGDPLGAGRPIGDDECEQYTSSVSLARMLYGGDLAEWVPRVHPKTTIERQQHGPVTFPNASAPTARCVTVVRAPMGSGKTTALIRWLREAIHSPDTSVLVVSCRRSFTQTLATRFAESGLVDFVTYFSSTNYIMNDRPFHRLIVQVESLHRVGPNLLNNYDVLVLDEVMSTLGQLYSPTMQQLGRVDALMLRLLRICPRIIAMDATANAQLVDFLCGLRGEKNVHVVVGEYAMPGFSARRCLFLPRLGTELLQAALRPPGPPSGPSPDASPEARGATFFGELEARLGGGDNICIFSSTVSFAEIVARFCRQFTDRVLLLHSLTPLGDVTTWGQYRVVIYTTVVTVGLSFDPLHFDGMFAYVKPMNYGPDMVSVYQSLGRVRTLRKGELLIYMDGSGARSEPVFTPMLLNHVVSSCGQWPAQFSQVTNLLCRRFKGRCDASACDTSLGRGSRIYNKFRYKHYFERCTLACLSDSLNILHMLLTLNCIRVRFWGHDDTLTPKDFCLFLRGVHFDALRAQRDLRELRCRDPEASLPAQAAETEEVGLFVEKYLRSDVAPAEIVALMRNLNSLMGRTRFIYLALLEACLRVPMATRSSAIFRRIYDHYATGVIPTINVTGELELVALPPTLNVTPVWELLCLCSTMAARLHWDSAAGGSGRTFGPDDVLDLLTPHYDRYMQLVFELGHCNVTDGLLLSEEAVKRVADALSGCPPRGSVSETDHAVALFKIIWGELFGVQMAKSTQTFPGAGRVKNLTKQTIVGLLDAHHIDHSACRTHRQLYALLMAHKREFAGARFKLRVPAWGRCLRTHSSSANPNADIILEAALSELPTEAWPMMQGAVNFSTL",
  "assay": "EMSA; binding to Box I with attached ssDNA tails verified by gel mobility shift; substrate number not specified",
  "conditions": "tags: none stated; baculovirus-infected Sf21 nuclear extract, 83 kDa; chain copies: 2 (homodimer on Box I, stated); label: 5'-32P on 44-mer; forked duplex with 18-nt 3' ssDNA tail and 10-nt 5' ssDNA tail",
  "data": [
    {"binder": "B1", "values": [
      {"measurement": "binding result", "value": "binds"}
    ]}
  ]
}
